Measurements as given in the supplement of paper PMC10567573.

B1: MLL5 (parent)
chain: HDDGYMICCDKCSVWQHIDCMGID
B2: CPXM2 (parent)
chain: TASTKNCMVGYDMGATRCDFTLSK

Variants of: B1
Experiment: protein stability index of a GFP-peptide fusion (GPS, HEK-293T) (PSI 1-6); higher = more stable
Conditions: c terminus: a fixed tail appended
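Also: lentivirally expressed fusions sorted by FACS into six bins by GFP to DsRed ratio, PSI derived from sequencing read proportions per bin multiplied by bin number.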

Variant | protein stability index
HDDGYMICCDKCSVWQHIDCMWID | 2.06
HDDGYMICCDKCSVWQHIDCMMID | 2.25
HDDGYMICCDKCSVWQHIDCMLID | 1.81
HDDGYMICCDKCSVWQHIFCMGID | 1.74
HDDGYMICCDKCSVWQHIWCMGID | 1.98
HDDGYMICCDKCSVWQHIACMGID | 2.04
HDDGYMICCDKCSVWQDIDCMGID | 2.5
HDDGYMICCDKCSVWQPIDCMGID | 2.18
YDDGYMICCDKCSVWQHIDCMGID | 3.85
KDDGYMICCDKCSVWQHIDCMGID | 2.95
TDDGYMICCDKCSVWQHIDCMGID | 2.19
NDDGYMICCDKCSVWQHIDCMGID | 2.73
HDTGYMICCDKCSVWQHIDCMGID | 2.41
HDGGYMICCDKCSVWQHIDCMGID | 2.47
HDAGYMICCDKCSVWQHIDCMGID | 2.13
HDFGYMICCDKCSVWQHIDCMGID | 1.53
HDLGYMICCDKCSVWQHIDCMGID | 1.01
HDDGYMICCDKCSVWQHIDIMGID | 2.08
HDDGYMICCDKCSVWQHIDFMGID | 1.28
HDDGYMICCDKCSVWQHIDSMGID | 1.51
HDDGYMICCDKCSVWQHIDVMGID | 1.89
HDDGYMICCDKCSVWQHIDEMGID | 2.29
HDDGYMICCDKCSVWQHIDKMGID | 2.06
HDDGYMICCDKISVWQHIDCMGID | 1.92
HDDGYMICCDKPSVWQHIDCMGID | 2.56

Variant | protein stability index
HDDGYMICCDKSSVWQHIDCMGID | 3.01
HDDGYMICCDKRSVWQHIDCMGID | 2.28
HDDGYMICCDKCSVWKHIDCMGID | 2.35
HDDGYMICCDKCSVWRHIDCMGID | 2.48
HDDGYMICCDKCSHWQHIDCMGID | 3.23
HDDGYMICCDKCSDWQHIDCMGID | 3.37
HDDGYMICCDKCSRWQHIDCMGID | 2.77
HDDGYMICCDYCSVWQHIDCMGID | 1.86
HDDGYMICCDHCSVWQHIDCMGID | 2.1
HDDGYMICCDPCSVWQHIDCMGID | 2.4
HDDGYMICCDSCSVWQHIDCMGID | 2.68
HDDGYMICCDECSVWQHIDCMGID | 2.39
HDDGYMICCDKCSVWQHIDCMGIA | 2.17
HDDGYMICCDKCSVWQHIDCMGIW | 1.49
HDDGYMICCDKCSVWQHIDCMGIG | 2.19
HDDGYMICCDKCSVWQHIDCYGID | 2.21
HDDGYMICCDKCSVWQHIDCDGID | 3.5
HDDGYMICCDKCSVWQHIDCCGID | 2.78
HDDGYMICCTKCSVWQHIDCMGID | 1.69
HDDGYMICCAKCSVWQHIDCMGID | 1.71
HDDGYMICCDKCSVWQHIDCMGWD | 1.77
HDDGYMICCDKCSVWQHIDCMGMD | 2.36
HDDGYMICCDKCSVWQHIDCMGKD | 2.99
HDDGYMICCDKCMVWQHIDCMGID | 2.45
HDDGYMICCDKCCVWQHIDCMGID | 3.19

Variant | protein stability index
HDDGYMICCDKCVVWQHIDCMGID | 1.85
HDDGSMICCDKCSVWQHIDCMGID | 2.84
HDDGNMICCDKCSVWQHIDCMGID | 3.3
HDDGQMICCDKCSVWQHIDCMGID | 3.19
HDDGYVICCDKCSVWQHIDCMGID | 3.1
HDDGYLICCDKCSVWQHIDCMGID | 2.59
HDDGYIICCDKCSVWQHIDCMGID | 2.65
HDDGYMICCDKCSVWQHRDCMGID | 3.32
HDDGYMICCDKCSVWQHYDCMGID | 2.6
HDDGYMICCDKCSVWQHADCMGID | 2.9
HDDGYMYCCDKCSVWQHIDCMGID | 2.77
HDDGYMPCCDKCSVWQHIDCMGID | 2.71
HDDGYMFCCDKCSVWQHIDCMGID | 2.72
HDDGYMICQDKCSVWQHIDCMGID | 3
HDDGYMICDDKCSVWQHIDCMGID | 3.74
HDDGYMICPDKCSVWQHIDCMGID | 3.03
HDDGYMIICDKCSVWQHIDCMGID | 1.9
HDDGYMIQCDKCSVWQHIDCMGID | 2.96
HDDGYMIWCDKCSVWQHIDCMGID | 1.86
HDDGYMICCDKCSVMQHIDCMGID | 3.18
HTDGYMICCDKCSVWQHIDCMGID | 2.99
HFDGYMICCDKCSVWQHIDCMGID | 2.23
HDDPYMICCDKCSVWQHIDCMGID | 2.69
HDDLYMICCDKCSVWQHIDCMGID | 1.64
HDDYYMICCDKCSVWQHIDCMGID | 2.48

Variants of: B2
Experiment: as above
Conditions: c terminus: a fixed tail appended

Variant | protein stability index
TAWTKNCMVGYDMGATRCDFTLSK | 2.09
TAMTKNCMVGYDMGATRCDFTLSK | 2.1
TAVTKNCMVGYDMGATRCDFTLSK | 3.26
TAQTKNCMVGYDMGATRCDFTLSK | 1.91
TAYTKNCMVGYDMGATRCDFTLSK | 1.88
TADTKNCMVGYDMGATRCDFTLSK | 3.57
TAHTKNCMVGYDMGATRCDFTLSK | 1.97
TATTKNCMVGYDMGATRCDFTLSK | 2.4
TAETKNCMVGYDMGATRCDFTLSK | 3.06
TANTKNCMVGYDMGATRCDFTLSK | 2.37
TAFTKNCMVGYDMGATRCDFTLSK | 1.63
TAPTKNCMVGYDMGATRCDFTLSK | 2.57
TAATKNCMVGYDMGATRCDFTLSK | 2.3
TAKTKNCMVGYDMGATRCDFTLSK | 1.99
TALTKNCMVGYDMGATRCDFTLSK | 2.16
TARTKNCMVGYDMGATRCDFTLSK | 1.28
TACTKNCMVGYDMGATRCDFTLSK | 2.08
TAITKNCMVGYDMGATRCDFTLSK | 1.67
TAGTKNCMVGYDMGATRCDFTLSK | 2.47
TISTKNCMVGYDMGATRCDFTLSK | 1.8
TESTKNCMVGYDMGATRCDFTLSK | 3.9
TLSTKNCMVGYDMGATRCDFTLSK | 1.99
THSTKNCMVGYDMGATRCDFTLSK | 2.26

Variant | protein stability index
TFSTKNCMVGYDMGATRCDFTLSK | 2.58
TYSTKNCMVGYDMGATRCDFTLSK | 2.31
TTSTKNCMVGYDMGATRCDFTLSK | 2.06
TDSTKNCMVGYDMGATRCDFTLSK | 3.75
TCSTKNCMVGYDMGATRCDFTLSK | 1.64
TKSTKNCMVGYDMGATRCDFTLSK | 2.04
TGSTKNCMVGYDMGATRCDFTLSK | 2.91
TQSTKNCMVGYDMGATRCDFTLSK | 2.94
TVSTKNCMVGYDMGATRCDFTLSK | 2.21
TRSTKNCMVGYDMGATRCDFTLSK | 2.68
TMSTKNCMVGYDMGATRCDFTLSK | 2.41
TSSTKNCMVGYDMGATRCDFTLSK | 2.58
TWSTKNCMVGYDMGATRCDFTLSK | 1.73
TPSTKNCMVGYDMGATRCDFTLSK | 3.08
TNSTKNCMVGYDMGATRCDFTLSK | 3.16
TASSKNCMVGYDMGATRCDFTLSK | 1.93
TASCKNCMVGYDMGATRCDFTLSK | 2.65
TASRKNCMVGYDMGATRCDFTLSK | 1.91
TASQKNCMVGYDMGATRCDFTLSK | 2.25
TASAKNCMVGYDMGATRCDFTLSK | 2.23
TASIKNCMVGYDMGATRCDFTLSK | 2.25
TASHKNCMVGYDMGATRCDFTLSK | 2
TASPKNCMVGYDMGATRCDFTLSK | 2.47

Variant | protein stability index
TASMKNCMVGYDMGATRCDFTLSK | 2.58
TASLKNCMVGYDMGATRCDFTLSK | 1.85
TASNKNCMVGYDMGATRCDFTLSK | 2.4
TASDKNCMVGYDMGATRCDFTLSK | 3.17
TASFKNCMVGYDMGATRCDFTLSK | 1.92
TASYKNCMVGYDMGATRCDFTLSK | 2
TASEKNCMVGYDMGATRCDFTLSK | 2.12
TASWKNCMVGYDMGATRCDFTLSK | 1.82
TASKKNCMVGYDMGATRCDFTLSK | 2.01
YASTKNCMVGYDMGATRCDFTLSK | 1.71
QASTKNCMVGYDMGATRCDFTLSK | 2.52
MASTKNCMVGYDMGATRCDFTLSK | 2.45
VASTKNCMVGYDMGATRCDFTLSK | 1.61
SASTKNCMVGYDMGATRCDFTLSK | 2.86
HASTKNCMVGYDMGATRCDFTLSK | 1.82
LASTKNCMVGYDMGATRCDFTLSK | 2.18
AASTKNCMVGYDMGATRCDFTLSK | 2.66
GASTKNCMVGYDMGATRCDFTLSK | 1.88
PASTKNCMVGYDMGATRCDFTLSK | 2.1
RASTKNCMVGYDMGATRCDFTLSK | 1.92
KASTKNCMVGYDMGATRCDFTLSK | 2.05
NASTKNCMVGYDMGATRCDFTLSK | 2.51
WASTKNCMVGYDMGATRCDFTLSK | 1.59

Variant | protein stability index
CASTKNCMVGYDMGATRCDFTLSK | 1.68
DASTKNCMVGYDMGATRCDFTLSK | 3.69
EASTKNCMVGYDMGATRCDFTLSK | 3.37
IASTKNCMVGYDMGATRCDFTLSK | 1.8
TASTWNCMVGYDMGATRCDFTLSK | 1.97
TASTSNCMVGYDMGATRCDFTLSK | 2.63
TASTANCMVGYDMGATRCDFTLSK | 2.3
TASTFNCMVGYDMGATRCDFTLSK | 2.25
TASTQNCMVGYDMGATRCDFTLSK | 2.4
TASTRNCMVGYDMGATRCDFTLSK | 1.59
TASTMNCMVGYDMGATRCDFTLSK | 2.38
TASTINCMVGYDMGATRCDFTLSK | 2.04
TASTDNCMVGYDMGATRCDFTLSK | 3.25
TASTLNCMVGYDMGATRCDFTLSK | 2.29
TASTCNCMVGYDMGATRCDFTLSK | 1.74
TASTTNCMVGYDMGATRCDFTLSK | 2.35
TASTVNCMVGYDMGATRCDFTLSK | 2.42
TASTYNCMVGYDMGATRCDFTLSK | 1.72
TASTHNCMVGYDMGATRCDFTLSK | 2.4
TASTENCMVGYDMGATRCDFTLSK | 3.21
TASTGNCMVGYDMGATRCDFTLSK | 2.46
TASTNNCMVGYDMGATRCDFTLSK | 2.28
TASTPNCMVGYDMGATRCDFTLSK | 3.18

Variant | protein stability index
TASTKNDMVGYDMGATRCDFTLSK | 4
TASTKNAMVGYDMGATRCDFTLSK | 3.74
TASTKVCMVGYDMGATRCDFTLSK | 2.16
TASTKICMVGYDMGATRCDFTLSK | 1.89
TASTKLCMVGYDMGATRCDFTLSK | 1.83
TASTKGCMVGYDMGATRCDFTLSK | 2.38
TASTKRCMVGYDMGATRCDFTLSK | 2.04
TASTKSCMVGYDMGATRCDFTLSK | 2.66
TASTKQCMVGYDMGATRCDFTLSK | 2.72
TASTKWCMVGYDMGATRCDFTLSK | 2.34
TASTKACMVGYDMGATRCDFTLSK | 2.69
TASTKYCMVGYDMGATRCDFTLSK | 1.68
TASTKMCMVGYDMGATRCDFTLSK | 2.34
TASTKECMVGYDMGATRCDFTLSK | 3.22
TASTKTCMVGYDMGATRCDFTLSK | 3.1
TASTKCCMVGYDMGATRCDFTLSK | 1.62
TASTKHCMVGYDMGATRCDFTLSK | 2.04
TASTKDCMVGYDMGATRCDFTLSK | 3.5
TASTKKCMVGYDMGATRCDFTLSK | 1.87
TASTKPCMVGYDMGATRCDFTLSK | 3.12
TASTKFCMVGYDMGATRCDFTLSK | 2.12
